Results on eleven molecules are retold here after patent US20250326855A1 (GO THERAPEUTICS, published 2025).

Test [1] addresses T1, CD44v6 peptide glycoform with Tn on serine only (human).
T1 construct: also called CD44v6-Tn(S)
T1 peptide: GYRQTPKEDSHS(GalNAc)TTGTAAA
The experiment in a line: BLI (Octet).

Test [2] addresses T2, CD44v6 glycopeptide … with O-linked GalNAc on threonine 5 and serine 12 (human).
T2 construct: Synthetic glycopeptide; also called CD44v6-Tn(S + T); Tn-glycosylated CD44v6 glycopeptide
T2 peptide: GYRQT(GalNAc)PKEDSHS(GalNAc)TTGTAAA
Briefly: SPR (Biacore); Biacore, not Octet.

Test [3] concerns the target T2, CD44v6 glycopeptide … with O-linked …. The experiment in a line: BLI (Octet), apparent affinity with avidity factored in. (In general: BLI is a label-free optical method that tracks binding on a fibre tip over time.)
The target of test [4] is T3, MUC1 glycopeptide (MUC1-Tn) (UniProt P15941 138-197, limits assumed, Tn (GalNAc) glycosylated; sites not stated in the examples). Briefly: Biacore, column 'Affinity (Biacore)', row MUC1-Tn. Background: In SPR one partner is held on a chip, and binding of the other changes the refractive index at the surface.
Test [5] concerns the target Tn-glycosylated CD44 (human) (UniProt P16070). The experiment in a line: ELISA, antibody fixed at 1 ug/mL, coated antigen CD44_10-G(S1T1)-BSA titrated. Background: An ELISA detects its analyte on a solid surface through an enzyme-linked reagent.
In test [6] the target is T2, CD44v6 glycopeptide … with O-linked …. Briefly: BLI (Octet); biotinylated peptide on biosensor, antibody in solution; Table 13 Octet run with the humanized candidates; 4C8-cAb (mouse) as reference. As for the experimental part:
(§1) The affinities of humanized 4C8 candidates 1-8 against the CD44v6 glycopeptide and a MUC1 glycopeptide were measured using by bio-layer interferometry (BLI) using an Octet system. The peptides were immobilized onto the biosensor by biotin (ligand) and antibodies were in solution (analyte). Candidate 8(4C8-HV7-4-1-A/LV7-46-A) was most similar to the original […] antibody and was selected for further testing. Table 13 summarizes the dissociation constants (KD) for the noted humanized 4C8 candidates against the glycopeptides.

The target is the same in test [7]. The experiment in a line: BLI (Octet); biotinylated peptide on biosensor, antibody in solution. Here is the method: as §1
Test [8] concerns the target T3, MUC1 glycopeptide (MUC1-Tn). The description is as above. Here is the method: as §1
In test [9] the target is T2, CD44v6 glycopeptide … with O-linked …. The experiment in a line: hybridoma screening (ELISA, flow cytometry, immunofluorescence).

Where no end group is shown, it is not given here. GalNAc = O-linked GalNAc (Tn antigen, GalNAc-alpha1-O-Ser/Thr)

T3 sequence (P15941 138-197 limits assumed): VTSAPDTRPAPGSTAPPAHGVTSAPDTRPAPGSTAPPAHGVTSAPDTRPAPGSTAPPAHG

B1: 4C8 monoclonal antibody (antibody, V domains shown)
VH: QVQLQQPGSELVRPGASVKLSCKASGYTFTSYWMHWVKQRPGQGLEWIGNIYPRSGTTNYDGYFKSKATLTVDTSSSTAYMQLSSLTSEDSAVYFCTRSGYDYPFVYWGQGTLVTVSA
VL: QAVVTQESALTTSPGETVTLTCRTSTGAVSIRNYANWVQEKPDHLFTGLIGGTNNRAPGVPARFSGSLIGDKAALTITGAQPEDEAIYFCALLYSNYWVFGGGTKLTVL
notes: Murine hybridoma antibody; also called 4C8 mAb; mAb 4C8
The term EC50 (read off the curve) denotes the concentration giving half of the maximal effect. A high value points to weaker potency. Take B1: the Kd in test [1] is 6.4 nM; in test [2], 128 nM; in [3] it was 7.9 nM; in test [4], more than 400 nM; in [6], 163 nM. The molecule also had an EC50 (read off the curve) in test [5] of 0.02 µg/mL.

B2: humanized 4C8 candidate 2 (4C8-HV1-46-A/LV7-43-A) (antibody, V domains shown)
VH: QVQLVQSGAEVKKPGASVKVSCKASGYTFTSYWMHWVRQAPGQGLEWIGNIYPRSGTTNYDGYFKSRATLTVDTSTSTAYMELSSLRSEDTAVYFCTRSGYDYPFVYWGQGTLVTVSS
VL: QAVVTQEPSLTVSPGGTVTLTCRTSTGAVSIRNYANWVQEKPGQAFRGLIGGTNNRAPWTPARFSGSLLGDKAALTLSGVQPEDEAEYFCALLYSNYWVFGGGTKLTVL
notes: also called Molecule Number 2
In turn, B2 returned a Kd in test [7] of 194 nM.

B3: humanized 4C8 candidate 1 (4C8-HV1-18-A/LV7-43-A) (antibody, V domains shown)
VH: QVQLVQSGAEVKKPGASVKVSCKASGYTFTSYWMHWVRQAPGQGLEWIGNIYPRSGTTNYDGYFKSRATLTVDTSTSTAYMELRSLRSDDTAVYFCTRSGYDYPFVYWGQGTLVTVSS
VL: QAVVTQEPSLTVSPGGTVTLTCRTSTGAVSIRNYANWVQEKPGQAFRGLIGGTNNRAPWTPARFSGSLLGDKAALTLSGVQPEDEAEYFCALLYSNYWVFGGGTKLTVL
notes: also called Molecule Number 1
In turn, B3 registered a Kd in [7] of 191 nM. In test [5], this molecule displayed an EC50 (read off the curve) of 0.02 µg/mL.

B4: humanized 4C8 candidate 5 (4C8-HV1-18-A/LV7-46-A) (antibody, V domains shown)
VH: QVQLVQSGAEVKKPGASVKVSCKASGYTFTSYWMHWVRQAPGQGLEWIGNIYPRSGTTNYDGYFKSRATLTVDTSTSTAYMELRSLRSDDTAVYFCTRSGYDYPFVYWGQGTLVTVSS
VL: QAVVTQEPSLTVSPGGTVTLTCRTSTGAVSIRNYANWVQEKPGQAFRGLIGGTNNRAPWTPARFSGSLLGDKAALTLSGAQPEDEAEYFCALLYSNYWVFGGGTKLTVL
notes: also called Molecule Number 5
B4 gave a Kd in [7] of 177 nM.

B5: humanized 4C8 candidate 6 (4C8-HV1-46-A/LV7-46-A) (antibody, V domains shown)
VH: QVQLVQSGAEVKKPGASVKVSCKASGYTFTSYWMHWVRQAPGQGLEWIGNIYPRSGTTNYDGYFKSRATLTVDTSTSTAYMELSSLRSEDTAVYFCTRSGYDYPFVYWGQGTLVTVSS
VL: QAVVTQEPSLTVSPGGTVTLTCRTSTGAVSIRNYANWVQEKPGQAFRGLIGGTNNRAPWTPARFSGSLLGDKAALTLSGAQPEDEAEYFCALLYSNYWVFGGGTKLTVL
notes: also called Molecule Number 6
In [7], B5 came in with a Kd of 169 nM. In addition, the binding result in test [8] was “no binding (tested: affinity was below the detection limits)”.

B6: humanized 4C8 candidate 3 (4C8-HV1-69-A/LV7-43-A) (antibody, V domains shown)
VH: QVQLVQSGAEVKKPGSSVKVSCKASGYTFTSYWMHWVRQAPGQGLEWIGNIYPRSGTTNYDGYFKSRATLTVDTSTSTAYMELSSLRSEDTAVYFCTRSGYDYPFVYWGQGTLVTVSS
VL: QAVVTQEPSLTVSPGGTVTLTCRTSTGAVSIRNYANWVQEKPGQAFRGLIGGTNNRAPWTPARFSGSLLGDKAALTLSGVQPEDEAEYFCALLYSNYWVFGGGTKLTVL
notes: also called Molecule Number 3
In [7], B6 gave a Kd of 161 nM.

B7: humanized 4C8 candidate 7 (4C8-HV1-69-A/LV7-46-A) (antibody, V domains shown)
VH: QVQLVQSGAEVKKPGSSVKVSCKASGYTFTSYWMHWVRQAPGQGLEWIGNIYPRSGTTNYDGYFKSRATLTVDTSTSTAYMELSSLRSEDTAVYFCTRSGYDYPFVYWGQGTLVTVSS
VL: QAVVTQEPSLTVSPGGTVTLTCRTSTGAVSIRNYANWVQEKPGQAFRGLIGGTNNRAPWTPARFSGSLLGDKAALTLSGAQPEDEAEYFCALLYSNYWVFGGGTKLTVL
notes: also called Molecule Number 7
B7 gave a Kd in test [7] of 183 nM. Further, in [8], the binding result was “no binding (tested: affinity was below the detection limits)”. Besides, in test [5], the concentration giving a half-maximal response (EC50 (read off the curve)) is 0.02 µg/mL.

B8: 18G9 antibody (antibody, V domains shown)
VH: DVQLVESGGGLVQPGGSRKLSCAASGFTFSSFGMHWVRQAPEKGLEWVAYISSGSSTIYYADTVKGRFTISRDNPKNTLFLQMTSLRSEDTAMYYCARGSYRAMDYWGQGTSVTVSS
VL: QIVLTQSPALMSASPGEKVTMTCSASSSVNYMFWYQQKPRSSPKPWIYLTSNLASGVPARFSGSGSGTSYSLTISSMEAEDAATYYCQLWSSNPFTFGSGTKLEIK
notes: Murine monoclonal antibody
Regarding B8, in [9], the binding result was “binds”.

B9: 2B2 antibody (antibody, V domains shown)
VH: EVQLVESGGGLVKPGGSLKLSCAASGFTFSSYAMSWVRQSPERRLEWVAEISSGGSYTYYPDTVTGRFTISRDNAKNTLYLEMSSLRSEDTAMYYCARTVGEDWYFDVWGAGTTVTVSS
VL: DIQMTQTTSSLSASLGDRVTISCRASQDISHYLNWYQQKPDGAVKLLIYSTSRLHSGVPSRFSGSGSGTDYSLTISNLEQEDIATYFCQQGYTLPFTFGSGTKLEIK
notes: Murine monoclonal antibody
On to B9, for which, in test [9], the binding result is “binds”.

B10: 1D12 antibody (antibody, V domains shown)
VH: DVQLVESGGGLVQPGGSRKLSCAASGFTFSSFGIHWVRQAPEKGLEWVAYISSGSSTIYYADTVKGRFTISRDNPKNTLFLQMTSLRSEDTAMYYCARGSKVVAKSRGYWYFDVWGAGTTVTVSS
VL: DVVVTQTPLFLPVSFGDQVSISCRSSQSLANNYGITYLSWYLHRPGQSPQLLIYGISNRFSGVPDRFSGSGSGTDFTLKISTIKPEDLGMYYCLQGTHQPWTFGGGTKLEIK
notes: Murine monoclonal antibody
Consider B10, for which the binding result in test [9] was “binds”.

B11: 10H4 antibody (antibody, V domains shown)
VH: QSLEESGGRLVTPGTPLTLTCTASGFTINTYHMGWFRQAPGKGLQYIGIVSHDVGTYYATWAKGRFTISKTSSTTVDLRMPSPTTEDTATYICARGPGYWTFNLWGQGTLVTVSS
VL: AQVLTQTPASVSAAVGGTVTINCQASQSVYNNNQLSWYQQKPGQPLKQLIYKASTLASGVPSRFKGSGSGSQFTLTISDLECDDAATYFCAGGYKGDIHPFGGGTEVVVK
notes: Rabbit monoclonal antibody
B11: in [9], the binding result is given as “binds”.
